Article PMC10995192 (Nature Communications, 2024)
One block for each molecule: values may come before it.

How the values were obtained:
[1] = target: SNS-101, fully human monoclonal IgG1 kappa antibody against VISTA (human); experiment: SPR; SNS-101 captured on IgG capture chip, VISTA-His as analyte (0-30 nM), 25 C, PBS 0.05% Tween 20, pH 5.8; 1:1 Langmuir MTL fit
[2] = target: SNS-101, fully human monoclonal IgG1 kappa antibody against VISTA (human); experiment: SPR; SNS-101 captured on IgG capture chip, VISTA-His as analyte (0-30 nM), 25 C, PBS 0.05% Tween 20, pH 6.0; 1:1 Langmuir MTL fit
[3] = target: SNS-101, fully human monoclonal IgG1 kappa antibody against VISTA (human); experiment: SPR; SNS-101 captured on IgG capture chip, VISTA-His as analyte (0-30 nM), 25 C, PBS 0.05% Tween 20, pH 6.2; 1:1 Langmuir MTL fit
[4] = target: SNS-101, fully human monoclonal IgG1 kappa antibody against VISTA (human); experiment: SPR; SNS-101 captured on IgG capture chip, VISTA-His as analyte (0-240 nM), 25 C, PBS 0.05% Tween 20, pH 6.4; 1:1 Langmuir MTL fit
[5] = target: SNS-101, fully human monoclonal IgG1 kappa antibody against VISTA (human); experiment: SPR; SNS-101 captured on IgG capture chip, VISTA-His as analyte (0-240 nM), 25 C, PBS 0.05% Tween 20, pH 6.6; 1:1 Langmuir MTL fit
[6] = target: SNS-101, fully human monoclonal IgG1 kappa antibody against VISTA (human); experiment: SPR; SNS-101 captured on IgG capture chip, VISTA-His as analyte (0-240 nM), 25 C, PBS 0.05% Tween 20, pH 6.8; 1:1 Langmuir MTL fit
[7] = target: SNS-101, fully human monoclonal IgG1 kappa antibody against VISTA (human); experiment: SPR; SNS-101 captured on IgG capture chip, VISTA-His as analyte (0-480 nM), 25 C, PBS 0.05% Tween 20, pH 7.0; 1:1 Langmuir MTL fit
[8] = target: SNS-101, fully human monoclonal IgG1 kappa antibody against VISTA (human); experiment: SPR; SNS-101 captured on IgG capture chip, VISTA-His as analyte (0-480 nM), 25 C, PBS 0.05% Tween 20, pH 7.2; 1:1 Langmuir MTL fit
[9] = target: SNS-101, fully human monoclonal IgG1 kappa antibody against VISTA (human); experiment: SPR; SNS-101 captured on IgG capture chip, VISTA-His as analyte (0-480 nM), 25 C, PBS 0.05% Tween 20, pH 7.4; 1:1 Langmuir MTL fit
[10] = target: SNS-101, fully human monoclonal IgG1 kappa anti-VISTA antibody (human); experiment: SPR; panel of VISTA-His variants and wild type as analytes over captured SNS-101; pH 5.8 (PBS, 0.05% Tween-20), 25 °C
[11] = target: PSGL-1-19mer-Fc (19 N-terminal residues of human PSGL-1 fused to human IgG1-Fc) (human) (UniProt Q14242); experiment: SPR; PSGL-1-19mer-Fc captured on IgG capture chip, VISTA-His (0-960 nM) as analyte; pH 6.0, PBS + 0.05% Tween-20; KD from equilibrium analysis
PSGL-1-19mer-Fc (19 N-terminal residues of human PSGL-1 fused to human IgG1-Fc) (human), sequence (Q14242 42-412): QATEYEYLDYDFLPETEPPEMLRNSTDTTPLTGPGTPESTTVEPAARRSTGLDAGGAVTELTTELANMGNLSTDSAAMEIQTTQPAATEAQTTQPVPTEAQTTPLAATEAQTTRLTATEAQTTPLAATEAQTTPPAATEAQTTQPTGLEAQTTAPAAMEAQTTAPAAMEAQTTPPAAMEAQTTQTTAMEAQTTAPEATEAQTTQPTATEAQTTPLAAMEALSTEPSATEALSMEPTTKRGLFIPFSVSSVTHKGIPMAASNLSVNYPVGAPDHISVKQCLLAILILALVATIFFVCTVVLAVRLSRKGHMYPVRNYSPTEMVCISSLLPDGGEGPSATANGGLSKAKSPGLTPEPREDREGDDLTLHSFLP

[12] = target: SNS-101, fully human monoclonal IgG1 kappa anti-VISTA antibody (human); experiment: SPR; SNS-101 captured on IgG capture chip, VISTA-His (0-30 nM) as analyte; pH 5.8, PBS + 0.05% Tween 20, 25 °C; 1:1 Langmuir MTL fit; pH series
[13] = target: SNS-101, fully human monoclonal IgG1 kappa anti-VISTA antibody (human); experiment: SPR; SNS-101 captured on IgG capture chip, VISTA-His (0-30 nM) as analyte; pH 6.0, PBS + 0.05% Tween 20, 25 °C; 1:1 Langmuir MTL fit; pH series
[14] = target: SNS-101, fully human monoclonal IgG1 kappa anti-VISTA antibody (human); experiment: SPR; SNS-101 captured on IgG capture chip, VISTA-His (0-30 nM) as analyte; pH 6.2, PBS + 0.05% Tween 20, 25 °C; 1:1 Langmuir MTL fit; pH series
[15] = target: SNS-101, fully human monoclonal IgG1 kappa anti-VISTA antibody (human); experiment: SPR; SNS-101 captured on IgG capture chip, VISTA-His (0-240 nM) as analyte; pH 6.4, PBS + 0.05% Tween 20, 25 °C; 1:1 Langmuir MTL fit; pH series
[16] = target: SNS-101, fully human monoclonal IgG1 kappa anti-VISTA antibody (human); experiment: SPR; SNS-101 captured on IgG capture chip, VISTA-His (0-240 nM) as analyte; pH 6.6, PBS + 0.05% Tween 20, 25 °C; 1:1 Langmuir MTL fit; pH series
[17] = target: SNS-101, fully human monoclonal IgG1 kappa anti-VISTA antibody (human); experiment: SPR; SNS-101 captured on IgG capture chip, VISTA-His (0-240 nM) as analyte; pH 6.8, PBS + 0.05% Tween 20, 25 °C; 1:1 Langmuir MTL fit; pH series
[18] = target: SNS-101, fully human monoclonal IgG1 kappa anti-VISTA antibody (human); experiment: SPR; SNS-101 captured on IgG capture chip, VISTA-His (0-480 nM) as analyte; pH 7.0, PBS + 0.05% Tween 20, 25 °C; 1:1 Langmuir MTL fit; pH series
[19] = target: SNS-101, fully human monoclonal IgG1 kappa anti-VISTA antibody (human); experiment: SPR; SNS-101 captured on IgG capture chip, VISTA-His (0-480 nM) as analyte; pH 7.2, PBS + 0.05% Tween 20, 25 °C; 1:1 Langmuir MTL fit; pH series
[20] = target: SNS-101, fully human monoclonal IgG1 kappa anti-VISTA antibody (human); experiment: SPR; SNS-101 captured on IgG capture chip, VISTA-His (0-480 nM) as analyte; pH 7.4, PBS + 0.05% Tween 20, 25 °C; 1:1 Langmuir MTL fit; pH series
[21] = target: T1, VISTA-His H98A/H100A/H154A/H155A/R159A (human, UniProt Q9H7M9, H98A | H100A | H154A | H155A | R159A); experiment: SPR; panel of VISTA-His variants and wild type as analytes over captured SNS-101; pH 5.8 (PBS, 0.05% Tween-20), 25 °C; details: both partners purified
T1 construct: VISTA, human; probably the extracellular domain; source: Expi293, purified (Ni-NTA)

[22] = target: T2, C-terminal biotinylated hVISTA-Fc fusion protein (R&D Systems AVI7126-050) (human, UniProt Q9H7M9 33-194, biotin, C-terminal); experiment: ELISA; partner proteins coated at 5 µg/ml, biotinylated hVISTA-Fc serially diluted in 1% NFDM in PBS at pH 6.0; HRP-streptavidin; details: both partners purified
T2 construct: VISTA, human; source: bought: R&D Systems AVI7126-050
T2 sequence (looked up): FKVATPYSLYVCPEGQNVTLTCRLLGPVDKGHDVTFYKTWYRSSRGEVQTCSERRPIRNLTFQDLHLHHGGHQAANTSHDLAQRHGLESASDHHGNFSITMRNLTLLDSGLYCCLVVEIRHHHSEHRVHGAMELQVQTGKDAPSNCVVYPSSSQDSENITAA

koff [1]: 0.00129 s⁻¹
kon [1]: 3.68e+06 M⁻¹ s⁻¹
Kd [2]: 0.779 nM
koff [2]: 0.00213 s⁻¹
kon [2]: 2.74e+06 M⁻¹ s⁻¹
Kd [3]: 1.78 nM
koff [3]: 0.00219 s⁻¹
kon [3]: 1.23e+06 M⁻¹ s⁻¹
Kd [4]: 5.96 nM
koff [4]: 0.00321 s⁻¹
kon [4]: 539000 M⁻¹ s⁻¹
Kd [5]: 18.5 nM
koff [5]: 0.00566 s⁻¹
kon [5]: 306000 M⁻¹ s⁻¹
Kd [6]: 40.1 nM
koff [6]: 0.00842 s⁻¹
kon [6]: 210000 M⁻¹ s⁻¹
Kd [7]: 77 nM
koff [7]: 0.0101 s⁻¹
kon [7]: 131000 M⁻¹ s⁻¹
Kd [8]: 134 nM
koff [8]: 0.0147 s⁻¹
kon [8]: 110000 M⁻¹ s⁻¹
koff [9]: 0.0308 s⁻¹
kon [9]: 87200 M⁻¹ s⁻¹
Molecule: VISTA-His (human VISTA, V-domain immunoglobulin suppressor of T-cell activation, with His tag) (from UniProt Q9H7M9 33-311) (natural protein)

Kd [10]: 0.7 nM
koff [10]: 0.0022 s⁻¹
kon [10]: 3.2e+06 M⁻¹ s⁻¹
Kd [11]: 600 nM
koff [12]: 0.00129 s⁻¹
kon [12]: 3.68e+06 M⁻¹ s⁻¹
Kd [13]: 0.779 nM
koff [13]: 0.00213 s⁻¹
kon [13]: 2.74e+06 M⁻¹ s⁻¹
Kd [14]: 1.78 nM
koff [14]: 0.00219 s⁻¹
kon [14]: 1.23e+06 M⁻¹ s⁻¹
Kd [15]: 5.96 nM
koff [15]: 0.00321 s⁻¹
kon [15]: 539000 M⁻¹ s⁻¹
Kd [16]: 18.5 nM
koff [16]: 0.00566 s⁻¹
kon [16]: 306000 M⁻¹ s⁻¹
Kd [17]: 40.1 nM
koff [17]: 0.00842 s⁻¹
kon [17]: 210000 M⁻¹ s⁻¹
Kd [18]: 77 nM
koff [18]: 0.0101 s⁻¹
kon [18]: 131000 M⁻¹ s⁻¹
Kd [19]: 134 nM
koff [19]: 0.0147 s⁻¹
kon [19]: 110000 M⁻¹ s⁻¹
koff [20]: 0.0308 s⁻¹
kon [20]: 87200 M⁻¹ s⁻¹
Molecule: VISTA-His (wild-type human VISTA) (from UniProt Q9H7M9 33-311) (natural protein)

Kd [21]: > 960 nM
B1: SNS-101, fully human monoclonal IgG1 kappa anti-VISTA antibody (antibody, V domains shown)
VH: EVQLVESGGGLVQPGGSLRLSCAASGFTFDDYSMNWVRQAPGKGLEWVSYISSDADTIYYADSVKGRFTISRDNAKNSLYLQMNSLRAEDTAVYYCAREAGGVLGRVDFQHWGQGTLVTVSS
VL: DIQLTQSPSSLSASVGDRVTITCQASQDISNYLNWYQQKPGKAPKLLIYDASNLGTGVPSRFSGSGSGTDFTFTISSLQPEDIATYYCQQADFVPPWTFGGGTKVEIK
notes: the Fab part is in PDB 8TBQ; human IgG1 heavy chain; the light chain is in PDB 8TBQ; human kappa light chain; IgG1 kappa; captured on an IgG capture sensor chip in SPR; source: ExpiCHO, transient transfection, purified (Protein A)

binding result [22]: binds
B2: hSyndecan-2 (R&D Systems 2965-SD) (natural protein, human, UniProt P34741 19-144, looked up)
chain: ESRAELTSDKDMYLDNSSIEEASGVYPIDDDDYASASGSGADEDVESPELTTSRPLPKILLTSAAPKVETTTLNIQNKIPAQTKSPEETDKEKVHLSDSERKMDPAEEDTNVYTEKHSDSLFKRTE
notes: Syndecan-2, human; source: bought: R&D Systems 2965-SD
